# Reference: patent publication US20160176924A1 (UNIVERSITY OF COPENHAGEN, published 2016)
# Target: T1, Tat-NR2B (3)
# T1 construct: also called Tat-N2B (3); 20-mer Tat-NR2B peptide
# Assay: FP competition, fluorescent CRIPT probe
binder,measurement,value
"HIS-PDZ3 protein (PSD-95 PDZ3, residues 309-401, with tag MHHHHHPRGS) (other) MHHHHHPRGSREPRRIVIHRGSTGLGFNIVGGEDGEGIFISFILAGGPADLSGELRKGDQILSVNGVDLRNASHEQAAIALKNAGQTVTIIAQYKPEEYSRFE",binding result,no binding
